# Measurements: the supplement of paper PMC7125110
# ± gives the standard error. For part of these data: Fewer inactive variants are shown than the library holds.
# B1: glmS ribozyme (parent)
# chain: AUAAAAGCGCCAGAACUACAGAAAUGUAGUUGACGAGGAGGAGGUUUAUCGAAUUUUCGGCGGAUGCCUCCAAA
# What was measured:
# Details in all cases: with glucosamine-6-phosphate
# glucosamine-6-phosphate [1] = variants of: B1; experiment: kcat; higher = faster cleavage; RNA array
# Outline: (§1)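 Glucosamine-6-phosphate in HEPES/KCl/Mg(OAc)2 buffer, at 40 μM to 10 mM, was flowed over barcoded ribozyme variants transcribed in situ by E. coli RNA polymerase on sequenced MiSeq chips. Tracking was through a hybridised Cy3 probe at 37 °C. kobs, kcat and KM came from exponential decay fits and weighted Michaelis–Menten fits of normalised per-tile medians.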
# glucosamine-6-phosphate [2] = variants of: B1; experiment: KM; higher = weaker cofactor use; RNA array
# Outline: as §1
# glucosamine-6-phosphate [3] = variants of: B1; experiment: self-cleavage kobs at 640 uM GlcN6P; higher = faster cleavage; RNA array
# Outline: as §1
# glucosamine-6-phosphate [4] = variants of: B1; experiment: self-cleavage kobs at 2500 uM GlcN6P; higher = faster cleavage; RNA array
# Outline: as §1
# glucosamine-6-phosphate [5] = variants of: B1; experiment: self-cleavage kobs at 10000 uM GlcN6P; higher = faster cleavage; RNA array
# Outline: as §1
# glucosamine-6-phosphate [6] = variants of: B1; experiment: self-cleavage kobs at 40 uM GlcN6P; higher = faster cleavage; RNA array
# Outline: as §1
# glucosamine-6-phosphate [7] = variants of: B1; experiment: self-cleavage kobs at 160 uM GlcN6P; higher = faster cleavage; RNA array
# Outline: as §1
Variant,kcat (glucosamine-6-phosphate [1]),KM (glucosamine-6-phosphate [2]),self-cleavage kobs at 640 uM GlcN6P (glucosamine-6-phosphate [3]),self-cleavage kobs at 2500 uM GlcN6P (glucosamine-6-phosphate [4]),self-cleavage kobs at 10000 uM GlcN6P (glucosamine-6-phosphate [5]),self-cleavage kobs at 40 uM GlcN6P (glucosamine-6-phosphate [6]),self-cleavage kobs at 160 uM GlcN6P (glucosamine-6-phosphate [7])
A39G G44C,0.000507 ± 6.5e-05 s⁻¹,2450 ± 660 µM,0.000101 ± 1.9e-05 s⁻¹,0.000327 ± 6.4e-05 s⁻¹,0.000394 ± 4.8e-05 s⁻¹,–,–
A39G G44U,0.00229 ± 0.0007 s⁻¹,6340 ± 3000 µM,0.000198 ± 5e-05 s⁻¹,0.000853 ± 0.00022 s⁻¹,0.00136 ± 0.00023 s⁻¹,–,–
G35A U49C,< 1e-05 s⁻¹,–,< 1e-05 s⁻¹,–,< 1e-05 s⁻¹,–,–
G40A G41U,7.26e-05 ± 2.3e-06 s⁻¹,1160 ± 110 µM,2.54e-05 ± 8.5e-06 s⁻¹,5.29e-05 ± 1.9e-05 s⁻¹,6.43e-05 ± 1.3e-05 s⁻¹,–,–
G40A C58U,4.57e-05 ± 1.8e-05 s⁻¹,–,–,–,–,–,–
U31C U45C,0.0005 ± 0.0001 s⁻¹,4690 ± 1600 µM,5.17e-05 ± 1.1e-05 s⁻¹,0.000213 ± 3.5e-05 s⁻¹,0.000327 ± 4.5e-05 s⁻¹,–,–
G40A G43C,< 1e-05 s⁻¹,–,< 1e-05 s⁻¹,–,–,–,–
G37C A53G,3.88e-05 ± 1.1e-05 s⁻¹,–,–,5.73e-05 ± 1.6e-05 s⁻¹,3.11e-05 ± 1.1e-05 s⁻¹,< 1e-05 s⁻¹,–
A33U G37U,< 1e-05 s⁻¹,–,–,–,–,–,< 1e-05 s⁻¹
A33C C50A,< 1e-05 s⁻¹,–,–,–,–,–,–
U31C U54A,0.00685 ± 0.0022 s⁻¹,2980 ± 1300 µM,0.00122 ± 0.00019 s⁻¹,0.00228 ± 0.00051 s⁻¹,0.006 ± 0.00078 s⁻¹,0.000119 ± 1.5e-05 s⁻¹,0.000268 ± 5.9e-05 s⁻¹
U31G U65C,0.000173 ± 5.1e-05 s⁻¹,–,4.57e-05 ± 1.5e-05 s⁻¹,6.33e-05 ± 1.4e-05 s⁻¹,0.000136 ± 2e-05 s⁻¹,–,–
A33C G66U,2.18e-05 ± 4.2e-07 s⁻¹,2420 ± 190 µM,–,–,–,< 1e-05 s⁻¹,–
G32A A64C,1.13e-05 ± 9e-07 s⁻¹,1760 ± 490 µM,–,–,–,–,–
G37U C50U C70U,3.99e-05 ± 1.4e-05 s⁻¹,–,–,–,–,–,–
U31C U55A,0.00809 ± 0.0017 s⁻¹,3270 ± 1100 µM,0.00126 ± 0.00017 s⁻¹,0.00333 ± 0.00051 s⁻¹,0.00623 ± 0.00059 s⁻¹,0.000152 ± 2.3e-05 s⁻¹,0.000289 ± 6.8e-05 s⁻¹
A39G U54A,0.0133 ± 0.0029 s⁻¹,282 ± 100 µM,0.00823 ± 0.0019 s⁻¹,–,0.018 ± 0.0076 s⁻¹,0.00173 ± 0.00037 s⁻¹,–
A36C U55A,< 1e-05 s⁻¹,–,–,–,–,–,< 1e-05 s⁻¹
A33C A39G,0.0011 ± 0.0002 s⁻¹,5030 ± 1400 µM,0.000138 ± 1.9e-05 s⁻¹,0.000373 ± 9.9e-05 s⁻¹,0.000722 ± 8.1e-05 s⁻¹,–,–
G37A U45G,0.00169 ± 0.00018 s⁻¹,2870 ± 530 µM,0.000349 ± 6.9e-05 s⁻¹,0.000738 ± 0.00016 s⁻¹,0.00132 ± 0.00019 s⁻¹,–,8.96e-05 ± 3.2e-05 s⁻¹
